How the values were obtained:
[1] = target: T1, A3Bctd-DM (L230K/F308K), residues 187-378 (human, UniProt Q9UH17 187-378, L230K | F308K); experiment: SPR; association 120 s, dissociation 300 s
[2] = target: T1, A3Bctd-DM (L230K/F308K), residues …; experiment: SPR; association 300 s, dissociation 750 s

T1 sequence (Q9UH17 187-378 L230K/F308K): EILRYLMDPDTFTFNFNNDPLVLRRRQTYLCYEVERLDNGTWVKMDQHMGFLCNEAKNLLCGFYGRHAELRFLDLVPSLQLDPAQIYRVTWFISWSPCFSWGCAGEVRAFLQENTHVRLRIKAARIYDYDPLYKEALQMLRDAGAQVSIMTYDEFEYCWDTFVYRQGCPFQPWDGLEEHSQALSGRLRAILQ

B1: scFv 5G7 (heavy chain Fv followed by light chain Fv, 16-residue His8 linker) (scFv, V domains shown)
VH: EVQLLESGGDLVKPGGSLKLSCAASGFTFSSYGMSWVRQTPDKRLEWVATISSGGSYTYYPDSVKGRFTISRDNAKNTLYLQMSSLKSEDTAMYYCARGGEGYYFDYWGQGTTLTVSS
VL: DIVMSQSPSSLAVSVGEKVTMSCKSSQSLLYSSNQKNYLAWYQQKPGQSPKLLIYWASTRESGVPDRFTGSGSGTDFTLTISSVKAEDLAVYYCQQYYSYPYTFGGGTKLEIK
koff [1]: 0.000779 s⁻¹
koff [2]: 0.000331 s⁻¹

Source: PMC8070380 (2021)
